In assay [1] the target is HU (Haemophilus influenzae) (UniProt P43722). The assay can be described thus: ITC. The following applies: cited from earlier work.
Assay [2] addresses Neisseria meningitides DMP19 (DNA mimic protein 19 kDa), tag free (Neisseria meningitides). Nature of the assay: SEC; Superose 12, 20 mM Tris pH 7.4, 100 mM NaCl; 750 μM HU-His6 or 1500 μM tag-free DMP19 alone, or both together; MW from Kav against four standards. Background: Size exclusion chromatography separates by hydrodynamic size, large species first.
The target is the same in assay [3]. The assay can be described thus: ITC; ITC200, 300 μM HU-His6 dimer in the syringe into 30 μM DMP19 monomer in the cell, 20 mM Tris pH 7.4, 50 mM NaCl, 25°C, 20 injections of 2 μl. In general terms: In ITC the heat of successive injections is recorded.
The target of assay [4] is C-terminal His6-tagged Neisseria HU (not stated (Neisseria)). Nature of the assay: SEC; Superose 12, 20 mM Tris pH 7.4, 100 mM NaCl; 750 μM HU-His6 or 1500 μM tag-free DMP19 alone, or both together; MW from Kav against four standards.
Assay [5] has as its target Neisseria meningitides DMP19 (DNA mimic protein 19 kDa), tag free (Neisseria meningitides). Nature of the assay: ITC; ITC200, 300 μM HU-His6 dimer in the syringe into 30 μM DMP19 monomer in the cell, 20 mM Tris pH 7.4, 50 mM NaCl, 25°C, 20 injections of 2 μl. This is another data set of the same source.

In general, Kd refers to the free concentration of one partner at which half of the binding sites on the other are occupied at equilibrium, for simple one-to-one binding. For orientation: stoichiometry N means the number of molecules, sites or subunits per partner or assembly.

Several values for one entry are separate records, joined by “and”; a condition that tells them apart may be missing. Identical values can stand only once. Like-named read-outs stand apart in the source and are kept apart here.

Regarding HI1450 (from UniProt P44199), the equilibrium dissociation constant (Kd) in assay [1] is 3000 nM.
Consider “Neisseria meningitides DMP19 (DNA mimic protein 19 kDa), tag free (natural protein)”, for which the stoichiometry N in assay [2] amounted to 2.
As to “C-terminal His6-tagged Neisseria HU (natural protein)”, the Kd in assay [3] was 500 nM; in assay [5], 380 nM and 490 nM and 640 nM. In assay [4], this substance returned a stoichiometry N of 2.

Source of the values: publication PMC5722371.
